From the Immune Epitope Database (IEDB)

Experiments:
[1] = biological target: HLA-B*58:01; experiment: IEDB peptide-MHC binding, purified MHC/direct/fluorescence; filed as Kd, often an IC50 or EC50 that approximates it; ≥ and ≤ were set here for values at or beyond the usual limits of such assays; conditions: source organism: Giardia lamblia ATCC 50803
[2] = biological target: HLA-A*03:01; experiment: as above; conditions: source organism: Giardia lamblia ATCC 50803
[3] = biological target: HLA-B*15:01; experiment: as above; conditions: source organism: Giardia lamblia ATCC 50803
[4] = biological target: HLA-B*07:02; experiment: as above
[5] = biological target: HLA-B*27:05; experiment: as above; conditions: source organism: Giardia lamblia ATCC 50803
[6] = biological target: HLA-A*01:01; experiment: as above; conditions: source organism: Giardia lamblia ATCC 50803
[7] = biological target: HLA-A*02:01; experiment: as above; conditions: source organism: Giardia lamblia ATCC 50803
[8] = biological target: HLA-A*69:01; experiment: as above; conditions: source organism: Homo sapiens
[9] = biological target: HLA-B*40:01; experiment: as above; conditions: source organism: Mycobacterium tuberculosis
[10] = biological target: HLA-A*26:01; experiment: IEDB peptide-MHC binding, purified MHC/competitive/radioactivity; filed as Kd, often an IC50 or EC50 that approximates it; ≥ and ≤ were set here for values at or beyond the usual limits of such assays
[11] = biological target: HLA-A*29:02; experiment: as above
[12] = biological target: HLA-A*30:01; experiment: as above
[13] = biological target: HLA-A*32:01; experiment: as above
[14] = biological target: HLA-A*01:01; experiment: as above
[15] = biological target: HLA-A*30:02; experiment: as above
[16] = biological target: HLA-B*08:01; experiment: as above
[17] = biological target: HLA-A*24:02; experiment: IEDB peptide-MHC binding, purified MHC/competitive/fluorescence; ≥ and ≤ were set here for values at or beyond the usual limits of such assays; conditions: source organism: Zaire ebolavirus
[18] = biological target: HLA-A*02:01; experiment: IEDB peptide-MHC binding, purified MHC/competitive/fluorescence; filed as Kd, often an IC50 or EC50 that approximates it; ≥ and ≤ were set here for values at or beyond the usual limits of such assays; conditions: source organism: Escherichia coli
[19] = source organism: Lymphocytic choriomeningitis virus (strain Armstrong)
[20] = source organism: Mammarenavirus guanaritoense
[21] = source organism: Vaccinia virus WR

Q: With ATSGYRIAY as the sequence, how does the Kd [1] read?
A: 1.65 µM

Q: And the Kd [2]?
A: ≥ 20 µM

Q: And the Kd [3]?
A: 0.045 µM

Q: And the Kd ([4]; source organism: Giardia lamblia ATCC 50803)?
A: ≥ 20 µM

Q: What about the Kd [5] of the same sequence?
A: ≥ 20 µM

Q: What about the Kd [6] of the same sequence?
A: 0.0687 µM

Q: And the Kd [7]?
A: ≥ 20 µM

Q: With DAYRRIHSL as the sequence, how does the Kd [8] read?
A: 0.119 µM

Q: What about the Kd ([4]; source organism: Homo sapiens) of the same sequence?
A: 16.4 µM

Q: With DECEFELAL as the sequence, how does the Kd [9] read?
A: 0.803 µM

Q: With DLMGVPYCNY as the sequence, how does the Kd [10, 19] read?
A: 0.163 µM

Q: And the Kd [11, 19]?
A: 0.147 µM

Q: And the Kd [12, 19]?
A: ≥ 68 µM

Q: And the Kd [13, 19]?
A: ≥ 53 µM

Q: And the Kd [14, 19]?
A: 4.55 µM

Q: What about the Kd [15, 19] of the same sequence?
A: 0.544 µM

Q: With DLMSMSDGEF as the sequence, how does the Kd [10, 20] read?
A: 0.673 µM

Q: And the Kd [11, 20]?
A: 8.87 µM

Q: What about the Kd [12, 20] of the same sequence?
A: ≥ 70.4 µM

Q: And the Kd [13, 20]?
A: ≥ 22.9 µM

Q: And the Kd [14, 20]?
A: ≥ 41.2 µM

Q: And the Kd [15, 20]?
A: 1.92 µM

Q: How did the Kd [16, 21] turn out when EAKRKLTEL was run?
A: 0.00245 µM

Q: With EAMNEENRF as the sequence, how does the IC50 [17] read?
A: ≥ 147 µM

Q: With EARKTFVEL as the sequence, how does the Kd ([16]; source organism: Dengue virus 1 Brazil/97-11/1997) read?
A: 0.0971 µM

Q: EDPSSGYYS was tested. Which IC50 [17] did it give?
A: ≥ 185 µM

Q: How did the Kd [10, 20] turn out when EFSRSILWDY was run?
A: 10.3 µM

Q: And the Kd [11, 20]?
A: 1.13 µM

Q: And the Kd [12, 20]?
A: 1.4 µM

Q: What about the Kd [13, 20] of the same sequence?
A: ≥ 21.5 µM

Q: And the Kd [14, 20]?
A: 0.748 µM

Q: And the Kd [15, 20]?
A: 0.21 µM

Q: How did the Kd [16, 21] turn out when EKIIHFLTI was run?
A: 0.00504 µM

Q: Which Kd [18] does the source give for ELLEPLYDV here?
A: 0.0018 µM
